{"source": "paper PMC3509656", "test_in_all_cases": "EMSA", "conditions_in_all_cases": "40 mM Tris pH 7.6, 85 mM KCl, 19% glycerol, 4 mg/mL BSA, 0.5 mg/mL calf thymus DNA, 30 min at 30 C; 6% native PAGE in 0.5x TBE", "key": {"[1]": {"target": "T1, TorI-R45Q R45Q (Escherichia coli K-12 MG1655? (KplE1 prophage)) (UniProt Q2EES9)", "T1 sequence": "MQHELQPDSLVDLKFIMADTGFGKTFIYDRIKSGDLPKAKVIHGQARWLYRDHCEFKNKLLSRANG"}, "[2]": {"target": "T2, TorI-Y28F Y28F (Escherichia coli K-12 MG1655? (KplE1 prophage)) (UniProt Q2EES9)", "T2 sequence": "T1 sequence with Y28F, Q45R"}, "[3]": {"target": "T3, TorI-A46V A46V (Escherichia coli K-12 MG1655? (KplE1 prophage)) (UniProt Q2EES9)", "T3 sequence": "T1 sequence with Q45R, A46V"}, "[4]": {"target": "T4, TorI-F15L F15L (Escherichia coli K-12 MG1655? (KplE1 prophage)) (UniProt Q2EES9)", "T4 sequence": "T1 sequence with F15L, Q45R"}, "[5]": {"target": "T5, TorI-M17V M17V (Escherichia coli K-12 MG1655? (KplE1 prophage)) (UniProt Q2EES9)", "T5 sequence": "T1 sequence with M17V, Q45R"}, "[6]": {"target": "T6, TorI-L61S L61S (Escherichia coli K-12 MG1655? (KplE1 prophage)) (UniProt Q2EES9)", "T6 sequence": "T1 sequence with Q45R, L61S"}, "[7]": {"target": "T7, TorI-F22I F22I (Escherichia coli K-12 MG1655? (KplE1 prophage)) (UniProt Q2EES9)", "T7 sequence": "T1 sequence with F22I, Q45R"}}, "note": "Changes are numbered by the printed parent chain.", "data": [{"sequence": "CATCGAGAAGGCGGTATGGTTTTTCTTTCGGCTTTGCTGCTTCAATCTGCTTAACGGTGAGCATGGGTAAAAATCCGGTGGGTAAAATTATTTTATCCACTTTTTACCCGTCATGGAGTGCGGCTGTCAACGATCTGAAGCGAACCATGACGAACTGTAAATCTACGGAATGCTTGATATTCAGGGGATTTTGCGGACTGGTACGGATGGGAGCGAACTGATAAATGGTGTCCCCTGCAGGAATCGAACCTGCAATTAGCCCTTAGGAGGGGCTCGTTATATCCATT (double strand) [KplE1 attL]", "values": [{"measurement": "binding", "setting": "[1]", "value": "binds more weakly"}, {"measurement": "binding", "setting": "[2]", "value": "binds more weakly"}, {"measurement": "binding", "setting": "[3]", "value": "binds more weakly"}, {"measurement": "binding", "setting": "[4]", "value": "binds more weakly"}, {"measurement": "binding", "setting": "[5]", "value": "binds more weakly"}, {"measurement": "binding", "setting": "[6]", "value": "binds"}, {"measurement": "binding", "setting": "[7]", "value": "no binding"}]}]}
